Where a chain is given by its changes, count along the chain named.
T1: Human Interleukin-18 (mature form), wild type (human, UniProt Q14116 37-193)
T1 sequence: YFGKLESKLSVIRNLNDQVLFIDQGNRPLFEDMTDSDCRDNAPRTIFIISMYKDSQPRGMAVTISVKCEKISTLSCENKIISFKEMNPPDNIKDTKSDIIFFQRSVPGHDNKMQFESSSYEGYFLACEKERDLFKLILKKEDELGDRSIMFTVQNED

T2: Mouse IL-18Rα ectodomain (amino acids 19-329), biotinylated (mouse, UniProt Q61098 19-329, biotin on the AviTag (BirA ligase))
T2 construct: range 19-329; Secreted from Expi293 cells (H7 signal peptide removed); also called mIL-18Rα; mIL18Ra
T2 sequence: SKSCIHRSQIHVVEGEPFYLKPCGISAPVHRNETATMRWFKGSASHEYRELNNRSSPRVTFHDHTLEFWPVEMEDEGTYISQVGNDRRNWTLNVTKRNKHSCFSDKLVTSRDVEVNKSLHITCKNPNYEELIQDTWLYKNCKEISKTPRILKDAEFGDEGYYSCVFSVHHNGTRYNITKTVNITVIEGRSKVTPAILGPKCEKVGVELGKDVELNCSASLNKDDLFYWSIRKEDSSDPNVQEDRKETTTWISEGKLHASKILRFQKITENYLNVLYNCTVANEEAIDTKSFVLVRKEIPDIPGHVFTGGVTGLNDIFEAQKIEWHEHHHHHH

T3: Mouse IL-18BP (amino acids 31-194), biotinylated (mouse, UniProt Q9Z0M9 29-193, biotin on the AviTag (BirA ligase))
T3 construct: also called mIL-18BP
T3 sequence: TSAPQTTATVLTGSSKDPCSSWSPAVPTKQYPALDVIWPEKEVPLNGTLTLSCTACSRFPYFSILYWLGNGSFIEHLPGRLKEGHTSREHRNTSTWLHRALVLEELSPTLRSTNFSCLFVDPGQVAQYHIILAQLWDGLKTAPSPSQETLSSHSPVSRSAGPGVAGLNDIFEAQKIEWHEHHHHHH

B1: Human IL-18BP (amino acids 31-194), biotinylated (receptor)
chain: TPVSQTTTAATASVRSTKDPCPSQPPVFPAAKQCPALEVTWPEVEVPLNGTLSLSCVACSRFPNFSILYWLGNGSFIEHLPGRLWEGSTSRERGSTGTQLCKALVLEQLTPALHSTNFSCVLVDPEQVVQRHVVLAQLWAGLRATLPPTQEALPSSHSSPQQQGGLNDIFEAQKIEWHEHHHHHH
modifications: biotin on the AviTag (BirA ligase) where used biotinylated
notes: Soluble decoy receptor; also called hIL-18BP; recombinant IL-18BP
B2: SEQ ID NO: 61 (murine DR-IL-18 variant mCS2) (ligand)
chain: HFGRLHCTTAVIRNINDQVLFVDKRQPVFEDMTDIDQSASEPQTRLIIYAYGDSRARGKAVTLSVKDSKMSTLSCKNKIISFEEMDPPENIDDIQSDLIFFQKRVPGHNKMEFESSLYEGHFLACQKEDDAFKLILKKKDENGDKSVMFTLTNLHQS
notes: Engineered variant
B3: SEQ ID NO: 88 (second generation human DR-IL-18 variant 6-20) (ligand)
chain: T1 sequence with M51K, K53G, Q56R, S105A, D110N, N111R
notes: Engineered variant

How the values were obtained:
[1] = target: T1, Human Interleukin-18 (mature form), …; test: cell-based or functional assay
[2] = target: T1, Human Interleukin-18 (mature form), …; test: competition on yeast (flow cytometry): hIL-18BP titrated against a fixed 100 nM biotinylated hIL-18Rα on yeast-displayed IL-18
Method: By contrast, IL-18BP effectively neutralizes the IL-18 E42A, K89A and E42A/K89A previously described (Kim et al., 2001, Proc. Natl. Acad. Sci., 98(6):3304-3309) (shown in chart on right) [E42 and K89 of Kim et al. are E6 and K53 of SEQ ID NO: 30, respectively]. Biotinylated IL-18Rα was kept at a fixed concentration of 100 nM for all samples.
(§1) Individual colonies of IL-18 yeast were grown overnight at 30° C. in SDCAA liquid media and induced in SGCAA liquid media for 1 day at 20° C. IL-18 display levels on yeast were verified by flow cytometry using an anti-cMyc tag antibody (anti-myc-PE; Cell Signaling Technologies). Receptor staining with biotinylated IL-18Rα (with or without IL-18R β) or biotinylated IL-18BP was performed in PBS supplemented with 0.5% BSA and 2 mM EDTA (PBE) on ice. All analysis was performed on a Sony SA3800 flow cytometer.

[3] = target: T2, Mouse IL-18Rα ectodomain (amino acids …); test: SPR
[4] = target: T3, Mouse IL-18BP (amino acids 31-194), …; test: SPR; KD for IL-18BP over KD for IL-18Rα; SPR; ratio of two measured KD
Method: (§2) Experiments were conducted using a Biacore T100 and carried out at 25° C. Biotinylated IL-18Rα or IL-18BP were immobilized onto a Biacore biotin capture chip (Series S CAP sensor chip, GE Healthcare) to yield an Rmax of ˜50 RU (IL-18Rα) or ˜10 RU (IL-18BP). Measurements were made with serial dilutions of the IL-18 variants in HEPES buffered Saline-P+buffer (10 mM HEPES pH 7.4, 150 mM NaCl, 0.005% surfactant P20). The surface was regenerated by three 60-sec injections of regeneration buffer (3/4 (v/v) 8M guanidine hydrochloride with 1/4 (v/v) 1M sodium hydroxide). Experiments were performed in multiple channels simultaneously for increased observations. All data were analyzed with the Biacore T100 evaluation software version 2.0 with a 1:1 Langmuir binding model.

[5] = target: T3, Mouse IL-18BP (amino acids 31-194), …; test: on-yeast binding isotherms; KD ratio relative to WT IL-18; yeast-displayed variant; ratio normalized to WT, from the 10 µM placeholder
Method: as §1

[6] = target: T2, Mouse IL-18Rα ectodomain (amino acids …); test: SPR (Biacore T100), receptor captured via biotin, IL-18 as analyte
Method: as §2

[7] = target: T3, Mouse IL-18BP (amino acids 31-194), …; test: on-yeast binding isotherms; 10 µM used for NBD; yeast-displayed variant; ratio computed with 10 µM put in for NBD
Method: as §1

[8] = target: T3, Mouse IL-18BP (amino acids 31-194), …; test: SPR (Biacore T100), IL-18BP captured via biotin, IL-18 as analyte; SPR, soluble variant
Method: as §2

[9] = target: T3, Mouse IL-18BP (amino acids 31-194), …; test: SPR, immobilized biotinylated mIL-18BP, mCS2 as analyte; traces stay at or below about 2 RU during the injection (0 to about 180 s) on a 0-40 RU axis
Method: as §2

[10] = target: T3, Mouse IL-18BP (amino acids 31-194), …; test: SPR; KD ratio relative to WT IL-18; SPR; ratio normalized to WT
Method: as §2

[11] = target: T2, Mouse IL-18Rα ectodomain (amino acids …); test: on-yeast binding isotherm (flow cytometry)
Method: as §1

[12] = target: T3, Mouse IL-18BP (amino acids 31-194), …; test: SPR; KD(IL-18BP)/KD(IL-18Rα) normalized to WT IL-18
[13] = target: T3, Mouse IL-18BP (amino acids 31-194), …; test: yeast binding isotherms and SPR; members per FIG. 11A legend
Method: as §1, §2

[14] = target: B1; test: on-yeast binding isotherm (flow cytometry), drawn summary table, column IL18BP (KD); IL18Rα column reads N.D.
[15] = target: B1; test: on-yeast binding isotherm (flow cytometry)

B1 was tested, and the “IC50 of recombinant IL-18BP in the HEK Blue IL-18 signaling assay (hIL-18 fixed at 5 nM)” value [1] was 3 nM and the “IC50 (read off the curve)” value [2] was about 20 nM.

With B2 the Kd [3] was 0.08 nM, the “KD ratio IL-18BP/IL-18Rα” value [4] was 133000 and the “Dissociation Constant Ratio normalized to WT IL-18” value [5] was over 4690. For the same binder, the Kd [6] was 0.079 nM, the “KD ratio IL-18BP/IL-18Rα” value [7] was over 885 and the Kd [8] was 10500 nM. The Kd [9] was over 10000 nM, the “Dissociation Constant Ratio normalized to WT IL-18” value [10] was 7.25e+07 and the Kd [11] was 11.3 nM. For the same binder, the “IL-18 BP:Rα Dissociation Constant Ratio” value [12] was over 7.5e+07 and the Kd [13] was over 1000 nM.

For B3, the Kd [14] was 340 nM and the Kd [15] was 340 nM.

— patent US20230277625A1 (SIMCHA IL 18, published 2023)
